Data: the supplement of paper PMC7125110
± gives the standard error. This sample holds only a part of the variants without activity.

B1: glmS ribozyme (parent)
chain: AUAAAAGCGCCAGAACUACAGAAAUGUAGUUGACGAGGAGGAGGUUUAUCGAAUUUUCGGCGGAUGCCUCCAAA

How the values were obtained:
Details in all cases: with glucosamine-6-phosphate
glucosamine-6-phosphate [1] = variants of: B1; test: self-cleavage kobs at 40 uM GlcN6P; higher = faster cleavage; RNA array
In short: (§1)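 E. coli RNA polymerase transcribed barcoded ribozyme variants in situ on sequenced MiSeq chips, which were tracked via a hybridised Cy3 probe at 37 °C. Tiles were imaged over ~14 h after glucosamine-6-phosphate (40 μM to 10 mM) in HEPES/KCl/Mg(OAc)2 buffer was flowed in. Normalised per-tile medians were fit to one- or two-exponential decays for kobs, and kcat and KM came from weighted Michaelis–Menten fits.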

glucosamine-6-phosphate [2] = variants of: B1; test: self-cleavage kobs at 10000 uM GlcN6P; higher = faster cleavage; RNA array
In short: as §1

glucosamine-6-phosphate [3] = variants of: B1; test: self-cleavage kobs at 160 uM GlcN6P; higher = faster cleavage; RNA array
In short: as §1

glucosamine-6-phosphate [4] = variants of: B1; test: self-cleavage kobs at 640 uM GlcN6P; higher = faster cleavage; RNA array
In short: as §1

glucosamine-6-phosphate [5] = variants of: B1; test: self-cleavage kobs at 2500 uM GlcN6P; higher = faster cleavage; RNA array
In short: as §1

Variant	self-cleavage kobs at 40 uM GlcN6P (glucosamine-6-phosphate [1])	self-cleavage kobs at 10000 uM GlcN6P (glucosamine-6-phosphate [2])	self-cleavage kobs at 160 uM GlcN6P (glucosamine-6-phosphate [3])	self-cleavage kobs at 640 uM GlcN6P (glucosamine-6-phosphate [4])	self-cleavage kobs at 2500 uM GlcN6P (glucosamine-6-phosphate [5])
G51A U55A C58G	< 1e-05 s⁻¹	< 1e-05 s⁻¹	–	–	–
G59C A64U	< 1e-05 s⁻¹	< 1e-05 s⁻¹	< 1e-05 s⁻¹	< 1e-05 s⁻¹	–
A52G U56C	< 1e-05 s⁻¹	0.000259 ± 4.9e-05 s⁻¹	–	4.15e-05 ± 1.2e-05 s⁻¹	7.09e-05 ± 1.3e-05 s⁻¹
G59U G62U C71U	< 1e-05 s⁻¹	–	–	–	–
G51C C67A	< 1e-05 s⁻¹	–	< 1e-05 s⁻¹	< 1e-05 s⁻¹	< 1e-05 s⁻¹
U54C U55G	0.00056 ± 0.00017 s⁻¹	0.0366 ± 0.018 s⁻¹	0.000955 ± 0.00031 s⁻¹	0.00482 ± 0.0012 s⁻¹	0.00712 ± 0.0021 s⁻¹
A52C G62C C70A	< 1e-05 s⁻¹	–	–	–	–
G51C G66C	< 1e-05 s⁻¹	–	< 1e-05 s⁻¹	< 1e-05 s⁻¹	–
G51C G66U	< 1e-05 s⁻¹	< 1e-05 s⁻¹	–	< 1e-05 s⁻¹	< 1e-05 s⁻¹
G59U C61G A64G	< 1e-05 s⁻¹	< 1e-05 s⁻¹	–	< 1e-05 s⁻¹	< 1e-05 s⁻¹
U54C C68U	0.000265 ± 3.7e-05 s⁻¹	0.0106 ± 0.0023 s⁻¹	0.000635 ± 8.4e-05 s⁻¹	0.000868 ± 0.00023 s⁻¹	0.00216 ± 0.0005 s⁻¹
C58G G60A	< 1e-05 s⁻¹	–	–	–	–
G60U C71U	< 1e-05 s⁻¹	< 1e-05 s⁻¹	< 1e-05 s⁻¹	< 1e-05 s⁻¹	–
U56G U69C	0.000126 ± 1.8e-05 s⁻¹	0.00475 ± 0.0011 s⁻¹	0.000192 ± 6.9e-05 s⁻¹	0.000627 ± 0.00011 s⁻¹	0.00118 ± 0.00041 s⁻¹
C50U G62U	< 1e-05 s⁻¹	< 1e-05 s⁻¹	–	–	–
G51A A64U	< 1e-05 s⁻¹	–	< 1e-05 s⁻¹	–	–
A52U U55A U57C C67A	< 1e-05 s⁻¹	< 1e-05 s⁻¹	–	–	–
U55G G63A	< 1e-05 s⁻¹	< 1e-05 s⁻¹	< 1e-05 s⁻¹	< 1e-05 s⁻¹	< 1e-05 s⁻¹
U54G C71U	0.00109 ± 0.00015 s⁻¹	0.0636 ± 0.013 s⁻¹	0.00194 ± 0.00038 s⁻¹	0.00857 ± 0.00098 s⁻¹	0.0283 ± 0.0078 s⁻¹
G60U G63A	< 1e-05 s⁻¹	–	< 1e-05 s⁻¹	–	–
G60U G63U	< 1e-05 s⁻¹	< 1e-05 s⁻¹	< 1e-05 s⁻¹	< 1e-05 s⁻¹	–
G51U A64G	< 1e-05 s⁻¹	–	< 1e-05 s⁻¹	–	< 1e-05 s⁻¹

Variant	self-cleavage kobs at 40 uM GlcN6P (glucosamine-6-phosphate [1])	self-cleavage kobs at 10000 uM GlcN6P (glucosamine-6-phosphate [2])	self-cleavage kobs at 160 uM GlcN6P (glucosamine-6-phosphate [3])	self-cleavage kobs at 640 uM GlcN6P (glucosamine-6-phosphate [4])	self-cleavage kobs at 2500 uM GlcN6P (glucosamine-6-phosphate [5])
U55A G63U	< 1e-05 s⁻¹	< 1e-05 s⁻¹	–	< 1e-05 s⁻¹	–
G60A C61A C67G C68G	4.45e-05 ± 2.2e-05 s⁻¹	–	–	–	–
G60C G62U	< 1e-05 s⁻¹	< 1e-05 s⁻¹	< 1e-05 s⁻¹	–	< 1e-05 s⁻¹
C50G C67A C71A	5.33e-05 ± 1.4e-05 s⁻¹	6e-05 ± 1.6e-05 s⁻¹	0.000226 ± 3.6e-05 s⁻¹	0.0002 ± 3.8e-05 s⁻¹	8.26e-05 ± 1.6e-05 s⁻¹
C50G C58A C67U	3.98e-05 ± 1.7e-05 s⁻¹	5.82e-05 ± 1.9e-05 s⁻¹	–	–	–
A53C U57C C67G	< 1e-05 s⁻¹	< 1e-05 s⁻¹	–	–	–
U54C C67U	0.000255 ± 4.3e-05 s⁻¹	0.0047 ± 0.0014 s⁻¹	0.000586 ± 0.00012 s⁻¹	0.000928 ± 0.00027 s⁻¹	0.00157 ± 0.00051 s⁻¹
A53U C61A	< 1e-05 s⁻¹	< 1e-05 s⁻¹	–	–	–
U54C G60A	< 1e-05 s⁻¹	–	–	–	–
U54A G62U	< 1e-05 s⁻¹	< 1e-05 s⁻¹	–	–	< 1e-05 s⁻¹
U55G C67U	0.000342 ± 3.5e-05 s⁻¹	0.0121 ± 0.0017 s⁻¹	0.000573 ± 9.2e-05 s⁻¹	0.000864 ± 0.00017 s⁻¹	0.00136 ± 0.00026 s⁻¹
G51C G62A	< 1e-05 s⁻¹	< 1e-05 s⁻¹	–	< 1e-05 s⁻¹	< 1e-05 s⁻¹
G59C G66U	< 1e-05 s⁻¹	< 1e-05 s⁻¹	< 1e-05 s⁻¹	< 1e-05 s⁻¹	–
G59U G60U	< 1e-05 s⁻¹	–	< 1e-05 s⁻¹	< 1e-05 s⁻¹	< 1e-05 s⁻¹
G59U G60C	< 1e-05 s⁻¹	< 1e-05 s⁻¹	–	< 1e-05 s⁻¹	–
U49C G63A A64C	< 1e-05 s⁻¹	–	–	–	–
U56G G62A	< 1e-05 s⁻¹	< 1e-05 s⁻¹	–	–	< 1e-05 s⁻¹
U49G G59C	< 1e-05 s⁻¹	< 1e-05 s⁻¹	< 1e-05 s⁻¹	–	–
G59C C61U G66U	< 1e-05 s⁻¹	< 1e-05 s⁻¹	–	–	–
C58G A64G C70G	< 1e-05 s⁻¹	–	–	–	–
U55C G63A	< 1e-05 s⁻¹	< 1e-05 s⁻¹	< 1e-05 s⁻¹	–	< 1e-05 s⁻¹
C50A G62A A64C	< 1e-05 s⁻¹	< 1e-05 s⁻¹	–	–	–

Variant	self-cleavage kobs at 40 uM GlcN6P (glucosamine-6-phosphate [1])	self-cleavage kobs at 10000 uM GlcN6P (glucosamine-6-phosphate [2])	self-cleavage kobs at 160 uM GlcN6P (glucosamine-6-phosphate [3])	self-cleavage kobs at 640 uM GlcN6P (glucosamine-6-phosphate [4])	self-cleavage kobs at 2500 uM GlcN6P (glucosamine-6-phosphate [5])
G51U A53G	< 1e-05 s⁻¹	–	< 1e-05 s⁻¹	< 1e-05 s⁻¹	< 1e-05 s⁻¹
C50G U69A	0.000132 ± 2.4e-05 s⁻¹	7.99e-05 ± 1.5e-05 s⁻¹	0.000172 ± 2.9e-05 s⁻¹	0.000587 ± 0.0001 s⁻¹	0.000186 ± 2.8e-05 s⁻¹
A52G G66C	< 1e-05 s⁻¹	–	–	–	4.69e-05 ± 1.5e-05 s⁻¹
U55C G63U U69A	< 1e-05 s⁻¹	< 1e-05 s⁻¹	–	< 1e-05 s⁻¹	–
A53G G62A C67U	< 1e-05 s⁻¹	–	–	–	–
G59A A64C	< 1e-05 s⁻¹	–	< 1e-05 s⁻¹	< 1e-05 s⁻¹	< 1e-05 s⁻¹
G60C A64C	< 1e-05 s⁻¹	< 1e-05 s⁻¹	< 1e-05 s⁻¹	< 1e-05 s⁻¹	< 1e-05 s⁻¹
C58A C61U G66U	< 1e-05 s⁻¹	–	–	–	–
G60U G62C A64C	< 1e-05 s⁻¹	–	–	< 1e-05 s⁻¹	–
A52C C61U	< 1e-05 s⁻¹	< 1e-05 s⁻¹	–	< 1e-05 s⁻¹	< 1e-05 s⁻¹
G60A G62C	< 1e-05 s⁻¹	–	< 1e-05 s⁻¹	–	< 1e-05 s⁻¹
U54A U55C	0.00104 ± 0.00016 s⁻¹	0.0628 ± 0.022 s⁻¹	0.00215 ± 0.00046 s⁻¹	0.00479 ± 0.001 s⁻¹	0.0235 ± 0.0076 s⁻¹
U54A U55G	0.00074 ± 7.7e-05 s⁻¹	0.0328 ± 0.011 s⁻¹	0.00127 ± 0.00022 s⁻¹	0.00651 ± 0.0008 s⁻¹	0.0121 ± 0.0021 s⁻¹
G60U G62A	< 1e-05 s⁻¹	–	< 1e-05 s⁻¹	< 1e-05 s⁻¹	–
U49C G63A	< 1e-05 s⁻¹	< 1e-05 s⁻¹	< 1e-05 s⁻¹	–	–
U49C G63C	< 1e-05 s⁻¹	–	–	< 1e-05 s⁻¹	–
U56G C67U	0.000109 ± 1.2e-05 s⁻¹	0.00538 ± 0.00085 s⁻¹	0.000258 ± 4.6e-05 s⁻¹	0.00135 ± 0.00015 s⁻¹	0.00142 ± 0.00022 s⁻¹
U55G U56A	0.000287 ± 6.6e-05 s⁻¹	0.0131 ± 0.0051 s⁻¹	–	0.00208 ± 0.00047 s⁻¹	0.00834 ± 0.0016 s⁻¹
A52C G60C	< 1e-05 s⁻¹	< 1e-05 s⁻¹	< 1e-05 s⁻¹	< 1e-05 s⁻¹	< 1e-05 s⁻¹
G59A A64U C67G	< 1e-05 s⁻¹	–	–	–	–
C50G U54G G60A C70G	< 1e-05 s⁻¹	–	–	< 1e-05 s⁻¹	–
U49C C61G	< 1e-05 s⁻¹	< 1e-05 s⁻¹	–	–	–

Variant	self-cleavage kobs at 40 uM GlcN6P (glucosamine-6-phosphate [1])	self-cleavage kobs at 10000 uM GlcN6P (glucosamine-6-phosphate [2])	self-cleavage kobs at 160 uM GlcN6P (glucosamine-6-phosphate [3])	self-cleavage kobs at 640 uM GlcN6P (glucosamine-6-phosphate [4])	self-cleavage kobs at 2500 uM GlcN6P (glucosamine-6-phosphate [5])
A52G U57A G66U	< 1e-05 s⁻¹	3.15e-05 ± 1.6e-05 s⁻¹	–	–	–
G51A U57A	< 1e-05 s⁻¹	< 1e-05 s⁻¹	–	–	–
G60U C61U	< 1e-05 s⁻¹	< 1e-05 s⁻¹	–	< 1e-05 s⁻¹	–
C50G A64G C71A	8.51e-05 ± 2.3e-05 s⁻¹	9.96e-05 ± 2.1e-05 s⁻¹	–	–	–
U49G C61A G62U	< 1e-05 s⁻¹	< 1e-05 s⁻¹	–	< 1e-05 s⁻¹	< 1e-05 s⁻¹
A53U U56A C70U	0.000179 ± 3.4e-05 s⁻¹	0.00382 ± 0.0011 s⁻¹	–	–	–
U49C U57A	< 1e-05 s⁻¹	–	–	–	–
G51C A64G C68A	< 1e-05 s⁻¹	< 1e-05 s⁻¹	–	–	–
U57G G63U	< 1e-05 s⁻¹	< 1e-05 s⁻¹	< 1e-05 s⁻¹	–	< 1e-05 s⁻¹
G51A U55G	< 1e-05 s⁻¹	–	< 1e-05 s⁻¹	< 1e-05 s⁻¹	–
U55A U69C	0.000718 ± 0.00017 s⁻¹	0.00148 ± 0.0004 s⁻¹	0.000108 ± 3.1e-05 s⁻¹	0.000329 ± 0.0001 s⁻¹	7.69e-05 ± 3e-05 s⁻¹
A52U G60U C67U	< 1e-05 s⁻¹	< 1e-05 s⁻¹	–	–	–
A53U G59C	< 1e-05 s⁻¹	< 1e-05 s⁻¹	< 1e-05 s⁻¹	< 1e-05 s⁻¹	< 1e-05 s⁻¹
U54A C71G	0.000131 ± 2.1e-05 s⁻¹	0.00197 ± 0.00046 s⁻¹	0.000336 ± 0.00012 s⁻¹	0.000507 ± 0.00011 s⁻¹	0.000368 ± 0.00016 s⁻¹
U54A C71U	0.00124 ± 0.00023 s⁻¹	0.0214 ± 0.01 s⁻¹	0.00159 ± 0.00033 s⁻¹	0.00337 ± 0.00063 s⁻¹	0.00313 ± 0.00083 s⁻¹
U54A G66A C67G	5.57e-05 ± 1.5e-05 s⁻¹	0.000693 ± 0.00017 s⁻¹	–	–	0.000119 ± 4.7e-05 s⁻¹
U54A C68G C70U	8.05e-05 ± 2.2e-05 s⁻¹	–	–	–	–
A53U G60C	< 1e-05 s⁻¹	< 1e-05 s⁻¹	–	–	< 1e-05 s⁻¹
G51U C58A G60U	< 1e-05 s⁻¹	< 1e-05 s⁻¹	–	–	–
G60U U69C	< 1e-05 s⁻¹	< 1e-05 s⁻¹	< 1e-05 s⁻¹	< 1e-05 s⁻¹	–
